Values joined by “and” are separate entries in the source; they are usually repeats but may differ in a detail not shown here. Equal values may be shown once. “Also recorded” adds a separate entry of the source.
What was measured:
[1] = system: trigeminal ganglion malondialdehyde; assay: Malondialdehyde (oxidative stress) immunostaining of trigeminal ganglion after recurrent spreading depression; assay type: in vivo, rat
Description: (§1) N2B delivery of 150 μg human recombinant IGF-1 (#191-G1; R&D Systems, Minneapolis, MN) in 50 μL sodium succinate buffer followed the previously described approach (21,51) that was based on the techniques of Liu and coworkers (24) in the recording laboratory under isoflurane anesthesia with spontaneous ventilation.
Induction of recurrent SD followed previously published aseptic techniques from the inventors' laboratory (8, 13, 21, 25, 26, 51) (FIG. 4). […]
Imaging was performed using a Photometrics self-calibrating digital camera QuantEM-512SC camera (500×500 pixels; Photometrics, Tucson, AZ) run on MetaMorph software (v. 7.0.4; Molecular Devices, Sunnyvale, CA) under blinded conditions (as previously described (13, 20-22). Image exposure, camera gain and thresholding were uniformly set (i.e., equivalently for experimental and sham groups for each imaging metric (i.e., MDA, CGRP and c-fos). Resultant images were digitally stored as TIFF files for subsequent analyses that continued under blinded conditions where image integrated fluorescence intensity was registered using MetaMorph software for MDA and CGRP.
Images of MDA and CGRP were analyzed while blinded and later decoded to ratios of experimental/sham image integrated optical intensity, a sensitive metric that not only accounts for the area but also the pixel intensity of related image fluorescence. […]

[2] = Blood glucose after nose-to-brain (N2B) delivery of IGF-1; assay type: in vivo, Wistar rats; conditions: for blood glucose level: n=4/group; for hypoglycemia: after nasal (N2B) delivery of IGF-1
Description: as §1
Blood glucose was monitored in a subset of animals. Immediately before N2B treatments and while anesthetized, blood glucose was sampled at time zero using a sterile, 27 gauge hypodermic needle to puncture the tip of the tail. A second drop of blood from punctures was used for glucose measurements (Contour Next EZ; Ascensia Diabetes Care, US, Inc.; Parsippany, NJ). After N2B treatments (IGF-1 or vehicle), animals were briefly re-anesthetized and maintained as above for each blood draw done over time (i.e., 0.3, 3, 6, and 24 hours).

[3] = system: caudal trigeminal nucleus c-fos; assay: c-fos immunostaining of caudal trigeminal nucleus after recurrent spreading depression; assay type: in vivo, rat; conditions: −4.5 mm from the obex, n=6/group
Excerpt: Induction of recurrent SD followed previously published aseptic techniques from the inventors' laboratory (8, 13, 21, 25, 26, 51) (FIG. 4). Animals were anesthetized with 5% isoflurane, which was later reduced to 1.5% inhalational isoflurane in oxygen during procedures and followed previous procedures for assessing the impact of recurrent SD after pretreatment with N2B IGF-1 (21, 51)).
One day after N2B treatment and surgery, animals were again anesthetized with 5% isoflurane in oxygen that was reduced to 1.5% during recordings of CSD followed by procedures to induce recurrent CSD every 10 minutes for 90 minutes as previously described (FIG. 4) (21,51). […]
For c-fos image analyses, the 5× digitally stored TIFF files were electronically enlarged to facilitate cell counting to 6,400×6,400 pixels and adjusted for brightness/contrast equivalently between experimental group pairs using Image J (v. 1.43i; National Institutes of Health public access). c-fos labeled nuclei were manually counted by an observer blinded to experimental conditions. Only intensely stained, round or oval-shaped nuclei were counted in lamina I-II [obex through −6.0 mm, recording the average of n=3 sections (technical replicates) at each anatomical level per animal (n≥5 biological replicates/group)]. […]

[4] = within 30 minutes of N2B administration; cited from earlier work

For “IGF-1: human recombinant IGF-1 (#191-G1; R&D Systems), 150 μg in 50 μL sodium succinate buffer, delivered nose-to-brain”, the “reduction of malondialdehyde levels in the trigeminal ganglion after recurrent SD” value ([1]; N2B IGF-1 150 μg a day before 90 minutes of recurrent SD, p<0.001) was 82% and 83%, the “natural logarithm ratio (IGF-1/sham) of MDA immunostaining after recurrent SD” value ([1]; n=5/group) was −1.37±0.40 and the blood glucose level ([2]; 0.3-hour after N2B IGF-1 150 μg, non-fasted rats) was 196 ± 22 mg/dL. For the same substance, the blood glucose level ([2]; 3.0-hour after N2B IGF-1 150 μg) was 114 ± 14 mg/dL, the blood glucose level ([2]; 6.0-hour after N2B IGF-1 150 μg) was 134 ± 7 mg/dL and the blood glucose level ([2]; 24-hour after N2B IGF-1 150 μg) was 150 ± 40 mg/dL. The hypoglycemia [2] was “did not induce hypoglycemia; also recorded: did not see evidence of hypoglycemia; also recorded: did not evoke hypoglycemia; also recorded: no evidence of hypoglycemia; also recorded: did not cause hypoglycemia; also recorded: no hypoglycemic effect; also recorded: did not trigger hypoglycemia”, the hypoglycemia ([2]; listed as insulin-like growth factor-1) was “no impact on blood glucose levels occurred” and the “lowest IGF-1 glucose-related level seen” value ([2]; normal range for Wistar rats 85-132 mg/dL, control 132 mg/dL at time 0) was 114 mg/dL. For the same substance, the “relative c-fos positive cell counts (sham set to 1.00)” value [3] was 0.52±0.11 and the “levels in the trigeminal ganglion relative to levels in the olfactory bulb” value [4] was roughly 10 fold.
